Patent publication US20260193363A1 (US Dept. of Health and Human Services, published 2026)

How the values were obtained:
[1] = target: T1, EGFR overexpressed on cancer cell lines MDA-MB-468 and A431 (human, UniProt P00533 25-1210); assay: flow cytometry, antibodies added at 2 µg/ml, MDA-MB-468 cells
T1 construct: whole, on cells; also called overexpressed EGFR; cancer-expressed EGFR

[2] = target: T2, wild-type EGFR extracellular domain, His-tagged (human, UniProt P00533 25-645); assay: ELISA, hybridoma supernatant on His-tagged ECD on nickel-coated 96-well plate, OD450
T2 construct: extracellular domain; also called wtEGFR-His; EGFRwt ECD

[3] = target: T3, EGFRvIII on F98npEGFRvIII cells (rat glioma F98 transfected with nonphosphorylated EGFRvIII); assay: flow cytometry, antibodies added at 2 µg/ml, F98-npEGFRvIII cells
T3 construct: whole, on cells; also called F98-EGFRvIII

[4] = target: T1, EGFR overexpressed on cancer cell lines …; assay: flow cytometry, antibodies added at 2 µg/ml, A431 cells
[5] = target: T2, wild-type EGFR extracellular domain, …; assay: ELISA, purified antibody on His-tagged ECD, OD450
[6] = target: T4, wtEGFR at physiological levels on WI-38 cells (human, UniProt P00533 25-1210); assay: flow cytometry, antibodies added at 2 µg/ml, WI-38 cells
T4 construct: whole, on cells; also called normal cells

[7] = target: T5, wild-type EGFR on F98EGFR cells (rat glioma F98 transfected with full-length EGFR) (UniProt P00533 25-1210, limits assumed); assay: flow cytometry, antibodies added at 2 µg/ml, F98-EGFR cells
T5 construct: whole, on cells; also called wtEGFR on transfected F98 cells

[8] = target: EGFRvIII on DKMG-EGFRvIII cells (human glioblastoma line DKMG transduced with EGFRvIII); assay: cell-based or functional assay
[9] = target: T6, EGFRvIII extracellular domain, His-tagged (human); assay: BLI (Octet Red96), His-tagged antigen on Ni-NTA biosensors, antibody in solution, 30 C
T6 construct: extracellular domain; also called EGFRvIII-His; EGFRvIII-HIS

B1: monoclonal antibody 3D10 (antibody, V domains shown)
VH: QVQLKQSGPGLVQPSQSLSIICTVSGFSLTRNGVHWVRQSPGKGLEWVGVIWRSGRTDYDAAFMSRLSITKDNSKSQVFFKMNSLQADDTAIYYCVKNGDDGNYGTYWGQGTLVTVSA
VL: DIVMSQSPSSLGVSVGEKVTMSCKSSQSLLDSRNQKNYLAWYQQKPGQSPKLLIYWASTRESGVPDRFTGSGSGTEFTLTISSVKAEDLAIYYCQQYYNYPYTFGGGTKLEIT
[1]
  Median : PE-A: 205
[2]
  binding result: no binding
[3]
  Median : PE-A: 1420
[4]
  Median : PE-A: 196

B2: monoclonal antibody 9G11 (antibody, V domains shown)
VH: QVQLKQSGPGLVQPSQSLSITCTVSGFSLTRNGVHWVRQSPGKGLEWVGVIWRGGRTDYDAAFMSRLSITKDNSKSQVFFKMNSLQADDTAIYYCVKNGDDGNYGTYWGQGTLVTVSA
VL: DIVMSQSPSSLGVSVGEKVTMSCKSSQSLLDSRNQKNYLAWYQQKPGQSPKLLIYWASTRESGVPDRFTGSGSGTEFTLTISSVKAEDLAIYYCQQYYNYPYTFGGGTKLEIT
[1]
  Median : PE-A: 166
[5]
  binding result: no binding (tested: 5 ng/ml)
[3]
  Median : PE-A: 1010
[4]
  Median : PE-A: 160

B3: monoclonal antibody 11E11 (antibody, V domains shown)
VH: QVQLKQSGPSLVQPSQSLSITCTVSGFSLTNYGVHWIRQSPGKGLEWLGVKWRGGRTDYNAAFMSRLSITRDNSRSQVFFKMNSLQTDDTAIYYCAKNGPFGNFAGYWGQGTLVTVSA
VL: DIVMSQSPSSLAVSVGEKVSLTCKSSQSLLDNQKHYLAWYQQKPGQSPKLLIYWASTRESGVPDRFTGSGSGTEFTLTISSVKAEDLAVYYCQQFYNYPYTFGGGTKLEIK
[1]
  Median : PE-A: 216
[5]
  binding result: no binding (tested: 5 ng/ml)
[3]
  Median : PE-A: 1440
[4]
  Median : PE-A: 274

B4: monoclonal antibody 1D9 (antibody, V domains shown)
VH: QVQLKQSGRSLVQPSQSLSITCTVSGFSLTDYGVHWIRQSPGKGLEWLGVIWRSGRTDYNAVFMSRLSITKDNSKSQVFFKMNGLQTDDTAIYYCAKNGPFGNFAGYWGQGTPVAVSA
VL: DIVMSQSPSSLAVSVGEKVTMRCRSSQSLLDSYHQKNYLAWYLQKPGQSPKLLIYWASTRESGVPDRFTGSGSGTDFTLTISSVKAEDLAVYYCQEYYRYPYTFGGGTKLEIK
[1]
  Median : PE-A: 166
[2]
  binding result: no binding
[6]
  Median : PE-A: 41.4
[7]
  Median : PE-A: 45.5
[3]
  Median : PE-A: 1230
[4]
  Median : PE-A: 136

B5: monoclonal antibody 4A4 (antibody, V domains shown)
VH: QVQLKQSGRSLVQPSQSLSITCTVSGFSLTDYGVHWIRQSPGKGLEWLGVIWRSGRTDYNAVFMSRLSITKDNSKSQVFFKMNGLLIEDTAIYYCAKNGPFGNFAGYWGQGTPVAVSA
VL: DIVMSQSPSSLAVSVGEKVTMRCRSSQSLLDSYHQKNYLAWYLQKPGQSPKLLIYWASTRESGVPDRFTGSGSGTDFTLTISSVKAEDLAAYYCQEYYRYPYTFGGGTKLEIK
[1]
  Median : PE-A: 130
[5]
  binding result: no binding (tested: 5 ng/ml)
[6]
  Median : PE-A: 48
[7]
  Median : PE-A: 41.7
[3]
  Median : PE-A: 1110
[4]
  Median : PE-A: 83.3

B6: monoclonal antibody 11G3 (antibody, V domains shown)
VH: QVQLKQSGPSLVQPSQSLSITCTVSGFSLTNYGVHWVRQSPGKGLEWLGVMWRGGRTDYNAAFMSRLSITKDNSRSQVFFKMNSLQTDDAAIYYCAKNGPFGNFAGYWGQGTLVTVST
VL: DIVMSQSPSSLPVSVGEKVSLTCKSSRSLLDNQKHYLAWYQQKPGQSPKLLIYWASTRESGVPDRFTGSGSGTEFTLTISSVKAEDLAVYYCQQFYNYPYTFGGGTKLEIK
[1]
  Median : PE-A: 90.3
[5]
  binding result: no binding (tested: 5 ng/ml)
[6]
  Median : PE-A: 39.6
[7]
  Median : PE-A: 37.9
[4]
  Median : PE-A: 90.3

B7: 40H3 MMAE antibody drug conjugate (antibody, V domains shown)
VH: QVQLKQSGPGLVQPSQSLSITCTVSGFSLTNYGIHWLRQSPGKGLEWLGMMWRGGGTDYNAAFISRLTITKDTSKSQVFFRMNNLQTNDTAIYYCARKGVGMGLGYWGQGTSVTVSS
VL: DIQMTQSPASQSASLGESVTITCLASQTIGTWVAWYQQKPGRSPQLLIYGATNLADGVPSRFSGSGSGTKFSFKISSLQAEDFVSYYCQQLYSNPYTFGGGTKLEIK
[8]
  IC50 (nM), cell viability, DKMG EGFRvIII cells: 1.9 nM

B8: monoclonal antibody 40H3 (antibody, V domains shown)
VH: QVQLKQSGPGLVQPSQSLSITCTVSGFSLTNYGIHWLRQSPGKGLEWLGMMWRGGGTDYNAAFISRLTITKDTSKSQVFFRMNNLQTNDTAIYYCARKGVGMGLGYWGQGTSVTVSS
VL: DIQMTQSPASQSASLGESVTITCLASQTIGTWVAWYQQKPGRSPQLLIYGATNLADGVPSRFSGSGSGTKFSFKISSLQAEDFVSYYCQQLYSNPYTFGGGTKLEIK
notes: also called ma40H3 GS; 40H3 (full length antibody)
[9]
  Kd: 0.27 nM
  koff: 4.51e-05 s⁻¹
  kon: 167000 M⁻¹ s⁻¹
[1]
  Median : PE-A: 2140
[3]
  Median : PE-A: 1120
[4]
  Median : PE-A: 3160

B9: 40H3 DM1 antibody drug conjugate (antibody, V domains shown)
VH: QVQLKQSGPGLVQPSQSLSITCTVSGFSLTNYGIHWLRQSPGKGLEWLGMMWRGGGTDYNAAFISRLTITKDTSKSQVFFRMNNLQTNDTAIYYCARKGVGMGLGYWGQGTSVTVSS
VL: DIQMTQSPASQSASLGESVTITCLASQTIGTWVAWYQQKPGRSPQLLIYGATNLADGVPSRFSGSGSGTKFSFKISSLQAEDFVSYYCQQLYSNPYTFGGGTKLEIK
[8]
  IC50 (nM), cell viability, DKMG EGFRvIII cells: 0.56 nM
